Reference: patent US20190233477A1

Tests used:
[1] = target: NRPS Roquefortine/meleagrin synthesis protein A RoqA (Penicillium chrysogenum)
[2] = target: NRPS N-(5-amino-5-carboxypentanoyl)-L-cysteinyl-D-valine synthase PcbAB (Penicillium chrysogenum)
[3] = target: NRPS Pc21g12630 protein ChyA (Penicillium chrysogenum)

Sequence of MbtH-like homologue identified in the Veg biosynthesis cluster obtainable from an uncultured soil bacterium, called VEG8 (chain): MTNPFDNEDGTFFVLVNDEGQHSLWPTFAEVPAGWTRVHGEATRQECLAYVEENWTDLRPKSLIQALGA
Sequence of MbtH-like protein Tcp13 from the teicoplanin biosynthesis cluster from Actinoplanes teichomyceticus (chain): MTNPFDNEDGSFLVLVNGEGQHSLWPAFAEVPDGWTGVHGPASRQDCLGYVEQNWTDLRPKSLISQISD

In the case of “MbtH-like homologue SCO0489 from the calcium dependent antibiotic (CDA) biosynthesis cluster from Streptomyces coelicolor, called CDAI”, the relative productivity of HTD (roquefortine cluster), day 2, strain DS47274, transformant 9-5, LC/MS, untransformed strain set to 1.0 (fold of the untransformed strain (1.0)) [1] is reported as 4.48, the relative productivity of LLD-ACV (penicillin cluster), day 5, strain DS47274, transformant 9-5, LC/MS, untransformed strain set to 1.0 (fold of the untransformed strain (1.0)) [2] is reported as 12.5 and the relative productivity of Chrysogenin 12 (chrysogenin cluster), day 5, strain DS47274, transformant 9-4, LC/MS, untransformed strain set to 1.0 (fold of the untransformed strain (1.0)) [3] is reported as 413.

In the case of “MbtH-like homologue from the complestatine biosynthesis cluster from Streptomyces lavendulae, called COM”, the relative productivity of HTD (roquefortine cluster), day 2, strain DS47274, transformant 8-4, LC/MS, untransformed strain set to 1.0 (fold of the untransformed strain (1.0)) [1] is reported as 2.32, the relative productivity of LLD-ACV (penicillin cluster), day 5, strain DS47274, transformant 7-3, LC/MS, untransformed strain set to 1.0 (fold of the untransformed strain (1.0)) [2] is reported as 22.7 and the relative productivity of Chrysogenin 12 (chrysogenin cluster), day 5, strain DS47274, transformant 7-3, LC/MS, untransformed strain set to 1.0 (fold of the untransformed strain (1.0)) [3] is reported as 317.

“MbtH-like homologue identified in the Teg biosynthesis cluster obtainable from an uncultured soil bacterium, called TEG” showed a relative productivity of HTD (roquefortine cluster), day 2, strain DS47274, transformant 11-5, LC/MS, untransformed strain set to 1.0 (fold of the untransformed strain (1.0)) [1] of 9.35, a relative productivity of LLD-ACV (penicillin cluster), day 5, strain DS47274, transformant 11-5, LC/MS, untransformed strain set to 1.0 (fold of the untransformed strain (1.0)) [2] of 10.9 and a relative productivity of Chrysogenin 12 (chrysogenin cluster), day 5, strain DS47274, transformant 11-5, LC/MS, untransformed strain set to 1.0 (fold of the untransformed strain (1.0)) [3] of 266.

Substance “MbtH-like homologue identified in the Veg biosynthesis cluster obtainable from an uncultured soil bacterium, called VEG8” has a relative productivity of HTD (roquefortine cluster), day 2, strain DS47274, transformant 12-4, LC/MS, untransformed strain set to 1.0 (fold of the untransformed strain (1.0)) [1] of 2.9, a relative productivity of LLD-ACV (penicillin cluster), day 5, strain DS47274, transformant 12-4, LC/MS, untransformed strain set to 1.0 (fold of the untransformed strain (1.0)) [2] of 2.32 and a relative productivity of Chrysogenin 12 (chrysogenin cluster), day 5, strain DS47274, transformant 12-4, LC/MS, untransformed strain set to 1.0 (fold of the untransformed strain (1.0)) [3] of 189.

Substance “MbtH-like protein Tcp13 from the teicoplanin biosynthesis cluster from Actinoplanes teichomyceticus” has a relative productivity of HTD (roquefortine cluster), day 2, strain DS47274, transformant 10-2, LC/MS, untransformed strain set to 1.0 (fold of the untransformed strain (1.0)) [1] of 2.64, a relative productivity of LLD-ACV (penicillin cluster), day 5, strain DS47274, transformant 10-2, LC/MS, untransformed strain set to 1.0 (fold of the untransformed strain (1.0)) [2] of 16.1 and a relative productivity of Chrysogenin 12 (chrysogenin cluster), day 5, strain DS47274, transformant 10-5, LC/MS, untransformed strain set to 1.0 (fold of the untransformed strain (1.0)) [3] of 465.
